# Experimental data from patent publication US20240117018A1.
# What was measured:
# Assay in all cases: cell-based or functional assay
# [1] = target: HIV-1 Env of pseudovirus 3016.v5.c45 (HIV-1)
# [2] = target: HIV-1 Env of pseudovirus 3301.v1.c24 (HIV-1)
# [3] = target: HIV-1 Env of pseudovirus 6041.v3.c23 (HIV-1)
# [4] = target: HIV-1 Env of pseudovirus 9004SS_A3_4 (HIV-1)
# [5] = target: HIV-1 Env of pseudovirus 928-28 (HIV-1)
# [6] = target: HIV-1 Env of pseudovirus T255-34 (HIV-1)
# [7] = target: HIV-1 Env of pseudovirus 620345.c01 (HIV-1)
# [8] = target: HIV-1 Env of pseudovirus X2088_c9 (HIV-1)
# [9] = target: HIV-1 Env of pseudovirus 3103.v3.c10 (HIV-1)
# [10] = target: HIV-1 Env of pseudovirus A07412M1.vrc12 (HIV-1)
# [11] = target: HIV-1 Env of pseudovirus X1193_c1 (HIV-1)
# [12] = target: HIV-1 Env of pseudovirus X2131_C1_B5 (HIV-1)
# [13] = target: HIV-1 Env of pseudovirus 6545.v4.c1 (HIV-1)
# [14] = target: HIV-1 Env of pseudovirus 0815.v3.c3 (HIV-1)
# [15] = target: HIV-1 Env of pseudovirus R2184.c04 (HIV-1)
# [16] = target: HIV-1 Env of pseudovirus C4118.c09 (HIV-1)
# [17] = target: HIV-1 Env of pseudovirus 6480.v4.c25 (HIV-1)
# [18] = target: HIV-1 Env of pseudovirus T251-18 (HIV-1)
# [19] = target: HIV-1 Env of pseudovirus BJOX025000.01.1 (HIV-1)
# [20] = target: HIV-1 Env of pseudovirus P0402_c2_11 (HIV-1)
# [21] = target: HIV-1 Env of pseudovirus 3817.v2.c59 (HIV-1)
# [22] = target: HIV-1 Env of pseudovirus R3265.c06 (HIV-1)
# [23] = target: HIV-1 Env of pseudovirus BJOX010000.06.2 (HIV-1)
# [24] = target: HIV-1 Env of pseudovirus 6540.v4.c1 (HIV-1)
# [25] = target: HIV-1 Env of pseudovirus 231966.c02 (HIV-1)
# [26] = target: HIV-1 Env of pseudovirus 235-47 (HIV-1)
# [27] = target: HIV-1 Env of pseudovirus 211-9 (HIV-1)
# [28] = target: HIV-1 Env of pseudovirus 6952.v1.c20 (HIV-1)
# [29] = target: HIV-1 Env of pseudovirus C3347.c11 (HIV-1)
# [30] = target: HIV-1 Env of pseudovirus R1166.c01 (HIV-1)
# [31] = target: HIV-1 Env of pseudovirus T278-50 (HIV-1)
# [32] = target: HIV-1 Env of pseudovirus 89-F1_2_25 (HIV-1)
# [33] = target: HIV-1 Env of pseudovirus 263-8 (HIV-1)
# [34] = target: HIV-1 Env of pseudovirus C1080.c03 (HIV-1)
# [35] = target: HIV-1 Env of pseudovirus 191955_A11 (HIV-1)
# [36] = target: HIV-1 Env of pseudovirus 191084 B7-19 (HIV-1)
# [37] = target: HIV-1 Env of pseudovirus 6811.v7.c18 (HIV-1)
substance,measurement,setting,value
PGT128 (antibody),IC50 (Titer in TZM.bl cells),[1],> 50 mg/L
same,IC80 (Titer in TZM.bl cells),[1],> 50 mg/L
same,IC50 (Titer in TZM.bl cells),[2],0.067 mg/L
same,IC80 (Titer in TZM.bl cells),[2],0.499 mg/L
same,IC50 (Titer in TZM.bl cells),[3],> 50 mg/L
same,IC80 (Titer in TZM.bl cells),[3],> 50 mg/L
same,neutralization IC50,[4],0.002 mg/L
same,neutralization IC80,[4],0.01 mg/L
same,neutralization IC50,[5],> 50 mg/L
same,neutralization IC80,[5],> 50 mg/L
same,IC50 (Titer in TZM.bl cells),[6],> 50 mg/L
same,IC80 (Titer in TZM.bl cells),[6],> 50 mg/L
same,IC50 (Titer in TZM.bl cells),[7],> 50 mg/L
same,IC80 (Titer in TZM.bl cells),[7],> 50 mg/L
same,IC50 (Titer in TZM.bl cells),[8],> 50 mg/L
same,IC80 (Titer in TZM.bl cells),[8],> 50 mg/L
same,IC50 (Titer in TZM.bl cells),[9],0.014 mg/L
same,IC80 (Titer in TZM.bl cells),[9],0.033 mg/L
same,IC50 (Titer in TZM.bl cells),[10],> 50 mg/L
same,IC80 (Titer in TZM.bl cells),[10],> 50 mg/L
same,IC50 (Titer in TZM.bl cells),[11],> 50 mg/L
same,IC80 (Titer in TZM.bl cells),[11],> 50 mg/L
same,IC50 (Titer in TZM.bl cells),[12],> 50 mg/L
same,IC80 (Titer in TZM.bl cells),[12],> 50 mg/L
same,IC50 (Titer in TZM.bl cells),[13],> 50 mg/L
same,IC80 (Titer in TZM.bl cells),[13],> 50 mg/L
same,IC50 (Titer in TZM.bl cells),[14],0.03 mg/L
same,IC80 (Titer in TZM.bl cells),[14],0.137 mg/L
same,IC50 (Titer in TZM.bl cells),[15],20.1 mg/L
same,IC80 (Titer in TZM.bl cells),[15],> 50 mg/L
same,IC50 (Titer in TZM.bl cells),[16],> 50 mg/L
same,IC80 (Titer in TZM.bl cells),[16],> 50 mg/L
same,IC50 (Titer in TZM.bl cells),[17],0.003 mg/L
same,IC80 (Titer in TZM.bl cells),[17],0.019 mg/L
same,IC50 (Titer in TZM.bl cells),[18],> 50 mg/L
same,IC80 (Titer in TZM.bl cells),[18],> 50 mg/L
same,IC50 (Titer in TZM.bl cells),[19],> 50 mg/L
same,IC80 (Titer in TZM.bl cells),[19],> 50 mg/L
same,IC50 (Titer in TZM.bl cells),[20],0.007 mg/L
same,IC80 (Titer in TZM.bl cells),[20],0.02 mg/L
same,IC50 (Titer in TZM.bl cells),[21],0.003 mg/L
same,IC80 (Titer in TZM.bl cells),[21],0.023 mg/L
same,IC50 (Titer in TZM.bl cells),[22],> 50 mg/L
same,IC80 (Titer in TZM.bl cells),[22],> 50 mg/L
same,IC50 (Titer in TZM.bl cells),[23],4.82 mg/L
same,IC80 (Titer in TZM.bl cells),[23],> 50 mg/L
same,IC50 (Titer in TZM.bl cells),[24],11.8 mg/L
same,IC80 (Titer in TZM.bl cells),[24],> 50 mg/L
same,IC50 (Titer in TZM.bl cells),[25],3.2 mg/L
same,IC80 (Titer in TZM.bl cells),[25],> 50 mg/L
same,IC50 (Titer in TZM.bl cells),[26],> 50 mg/L
same,IC80 (Titer in TZM.bl cells),[26],> 50 mg/L
same,IC50 (Titer in TZM.bl cells),[27],0.062 mg/L
same,IC80 (Titer in TZM.bl cells),[27],0.215 mg/L
same,IC50 (Titer in TZM.bl cells),[28],> 50 mg/L
same,IC80 (Titer in TZM.bl cells),[28],> 50 mg/L
same,IC50 (Titer in TZM.bl cells),[29],0.001 mg/L
same,IC80 (Titer in TZM.bl cells),[29],0.007 mg/L
same,IC50 (Titer in TZM.bl cells),[30],> 50 mg/L
same,IC80 (Titer in TZM.bl cells),[30],> 50 mg/L
same,IC50 (Titer in TZM.bl cells),[31],0.031 mg/L
same,IC80 (Titer in TZM.bl cells),[31],0.089 mg/L
same,IC50 (Titer in TZM.bl cells),[32],> 50 mg/L
same,IC80 (Titer in TZM.bl cells),[32],> 50 mg/L
same,neutralization IC50,[33],0.342 mg/L
same,neutralization IC80,[33],3.3 mg/L
same,IC50 (Titer in TZM.bl cells),[34],0.283 mg/L
same,IC80 (Titer in TZM.bl cells),[34],2.06 mg/L
same,neutralization IC50,[35],14.2 mg/L
same,neutralization IC80,[35],> 50 mg/L
same,neutralization IC50,[36],0.022 mg/L
same,neutralization IC80,[36],0.152 mg/L
same,IC50 (Titer in TZM.bl cells),[37],0.003 mg/L
same,IC80 (Titer in TZM.bl cells),[37],0.05 mg/L
